The values that follow come from PMC3646893, “Solution Structure and Rpn1 Interaction of the UBL Domain of Human RNA Polymerase II C-Terminal Domain Phosphatase” (PLoS ONE, 2013).

The target in this experiment is T1, Rpn1 regulatory subunit 1 (Rpn1 394-568), as used for NMR titration and ITC (human, UniProt Q13200 394-568).
T1 construct: source: E. coli BL21 (DE3), purified (size exclusion chromatography)
The experiment is described as follows: ITC; VP-ITC, 25°C, NMR buffer; 20 µM Rpn1 regulatory subunit 1 in the cell, 25 injections of 6 µL of 400 µM UBL domain; one-site fit. Particulars: both partners purified.

T1 sequence (Q13200 394-568): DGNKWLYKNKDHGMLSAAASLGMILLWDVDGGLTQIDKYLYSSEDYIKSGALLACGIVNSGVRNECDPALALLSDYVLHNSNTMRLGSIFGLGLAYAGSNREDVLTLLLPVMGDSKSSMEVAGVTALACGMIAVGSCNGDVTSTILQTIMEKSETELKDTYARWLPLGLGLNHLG

B1: UBL domain of hUBLCP1 (UBLCP1 1-81), as used for NMR and ITC (domain or fragment, human, UniProt Q8WVY7 1-81, looked up)
chain: MALPIIVKWGGQEYSVTTLSEDDTVLDLKQFLKTLTGVLPERQKLLGLKVKGKPAENDVKLGALKLKPNTKIMMMGTREES
notes: UBL domain of human UBLCP1, residues 1-81; 15N-labelled (M9 medium) for the NMR titration; also called 15N-labeled UBL domain; source: E. coli BL21 (DE3), purified (size exclusion chromatography)
On to B1, for which the Kd was 10.3 µM and the dH is -53.8 kcal/mol.
